From PMC4241985

Biological target: transmembrane domain of Thermus thermophilus MgtE (278-450) (Thermus thermophilus) (UniProt Q5SMG8)
Assay: crystal structure

stoichiometry N: 2
Substance: transmembrane domain of Thermus thermophilus MgtE (278-450) (from UniProt Q5SMG8 278-450) (domain or fragment)
